In PMC11446282:

Test system: PP2A-B55α
Assay: Single alanine mutational scan, YFP-tagged interactors immunoprecipitated from HeLa cells, Western blot
Assay type: binding, human
Details: single alanine mutant of YFP-tagged IER2
Procedure: Standard cloning techniques were used throughout. Point mutations were introduced by whole plasmid polymerase chain reaction (PCR). All constructs were fully sequenced. Synthetic DNA was purchased from GeneArt, Life Technologies and cloned into pcDNA5/FRT/TO (Invitrogen) expression vector containing YFP, resulting in the indicated YFP fusion proteins. These constructs were transiently transfected into HeLa cells 24 hours before harvesting cells. Cells were lysed in lysis buffer [50 mM tris-HCl (pH 7.5), 50 mM NaCl, 1 mM EDTA, 1 mM […], and 0.1% NP-40]. Complexes were immunoprecipitated at 4°C in lysis buffer with green fluorescent protein (GFP)–Trap (ChromoTek) and washed in lysis buffer. Precipitated protein complexes were washed three times in lysis buffer, eluted in 2× SDS sample buffer, and subjected to Western blotting or MS as indicated.

Row | Molecule | Experimental % binding [%]
1 | IER2 R25: IER2, R25 to alanine (protein, UniProt Q9BTL4 1-223, looked up, variant R25A) Immediate early response gene …: MEVQKEAQRIMTLSVWKMYHSRMQAGGLRLHRSLQLSLVMRSARELYLSAKVEALEPEVSLPAALPSDPRLHPPREAESTAETATPDGEHPFPEPMDTQEAPTAEETSACCAPRPAKVSRKRRSSSLSDGGDAGLVPSKKARLEEKEEEEGASSEVADRLQPPPAQAEGAFPNLARVLQRRFSGLLNCSPAAPPTAPPACEAKPACRPADSMLNVLVRAVVAF | 76
2 | IER2 L30: IER2, L30 to alanine (protein) MEVQKEAQRIMTLSVWKMYHSRMQRGGLRAHRSLQLSLVMRSARELYLSAKVEALEPEVSLPAALPSDPRLHPPREAESTAETATPDGEHPFPEPMDTQEAPTAEETSACCAPRPAKVSRKRRSSSLSDGGDAGLVPSKKARLEEKEEEEGASSEVADRLQPPPAQAEGAFPNLARVLQRRFSGLLNCSPAAPPTAPPACEAKPACRPADSMLNVLVRAVVAF | 81
3 | IER2 R29: IER2, R29 to alanine (protein, UniProt Q9BTL4 1-223, looked up, variant R29A) Immediate early response gene …: MEVQKEAQRIMTLSVWKMYHSRMQRGGLALHRSLQLSLVMRSARELYLSAKVEALEPEVSLPAALPSDPRLHPPREAESTAETATPDGEHPFPEPMDTQEAPTAEETSACCAPRPAKVSRKRRSSSLSDGGDAGLVPSKKARLEEKEEEEGASSEVADRLQPPPAQAEGAFPNLARVLQRRFSGLLNCSPAAPPTAPPACEAKPACRPADSMLNVLVRAVVAF | 90
4 | IER2 L28: IER2, L28 to alanine (protein, UniProt Q9BTL4 1-223, looked up, variant L28A) Immediate early response gene …: MEVQKEAQRIMTLSVWKMYHSRMQRGGARLHRSLQLSLVMRSARELYLSAKVEALEPEVSLPAALPSDPRLHPPREAESTAETATPDGEHPFPEPMDTQEAPTAEETSACCAPRPAKVSRKRRSSSLSDGGDAGLVPSKKARLEEKEEEEGASSEVADRLQPPPAQAEGAFPNLARVLQRRFSGLLNCSPAAPPTAPPACEAKPACRPADSMLNVLVRAVVAF | 102
5 | IER2 L13: IER2, L13 to alanine (protein, UniProt Q9BTL4 1-223, looked up, variant L13A) Immediate early response gene …: MEVQKEAQRIMTASVWKMYHSRMQRGGLRLHRSLQLSLVMRSARELYLSAKVEALEPEVSLPAALPSDPRLHPPREAESTAETATPDGEHPFPEPMDTQEAPTAEETSACCAPRPAKVSRKRRSSSLSDGGDAGLVPSKKARLEEKEEEEGASSEVADRLQPPPAQAEGAFPNLARVLQRRFSGLLNCSPAAPPTAPPACEAKPACRPADSMLNVLVRAVVAF | 80
6 | IER2 Q8: IER2, Q8 to alanine (protein, UniProt Q9BTL4 1-223, looked up, variant Q8A) Immediate early response gene …: MEVQKEAARIMTLSVWKMYHSRMQRGGLRLHRSLQLSLVMRSARELYLSAKVEALEPEVSLPAALPSDPRLHPPREAESTAETATPDGEHPFPEPMDTQEAPTAEETSACCAPRPAKVSRKRRSSSLSDGGDAGLVPSKKARLEEKEEEEGASSEVADRLQPPPAQAEGAFPNLARVLQRRFSGLLNCSPAAPPTAPPACEAKPACRPADSMLNVLVRAVVAF | 90
7 | IER2 L34: IER2, L34 to alanine (protein) MEVQKEAQRIMTLSVWKMYHSRMQRGGLRLHRSAQLSLVMRSARELYLSAKVEALEPEVSLPAALPSDPRLHPPREAESTAETATPDGEHPFPEPMDTQEAPTAEETSACCAPRPAKVSRKRRSSSLSDGGDAGLVPSKKARLEEKEEEEGASSEVADRLQPPPAQAEGAFPNLARVLQRRFSGLLNCSPAAPPTAPPACEAKPACRPADSMLNVLVRAVVAF | 74
8 | IER2 T12: IER2, T12 to alanine (protein, UniProt Q9BTL4 1-223, looked up, variant T12A) Immediate early response gene …: MEVQKEAQRIMALSVWKMYHSRMQRGGLRLHRSLQLSLVMRSARELYLSAKVEALEPEVSLPAALPSDPRLHPPREAESTAETATPDGEHPFPEPMDTQEAPTAEETSACCAPRPAKVSRKRRSSSLSDGGDAGLVPSKKARLEEKEEEEGASSEVADRLQPPPAQAEGAFPNLARVLQRRFSGLLNCSPAAPPTAPPACEAKPACRPADSMLNVLVRAVVAF | 94
9 | IER2 Q35: IER2, Q35 to alanine (protein, UniProt Q9BTL4 1-223, looked up, variant Q35A) Immediate early response gene …: MEVQKEAQRIMTLSVWKMYHSRMQRGGLRLHRSLALSLVMRSARELYLSAKVEALEPEVSLPAALPSDPRLHPPREAESTAETATPDGEHPFPEPMDTQEAPTAEETSACCAPRPAKVSRKRRSSSLSDGGDAGLVPSKKARLEEKEEEEGASSEVADRLQPPPAQAEGAFPNLARVLQRRFSGLLNCSPAAPPTAPPACEAKPACRPADSMLNVLVRAVVAF | 67
10 | IER2 M11: IER2, M11 to alanine (protein, UniProt Q9BTL4 1-223, looked up, variant M11A) Immediate early response gene …: MEVQKEAQRIATLSVWKMYHSRMQRGGLRLHRSLQLSLVMRSARELYLSAKVEALEPEVSLPAALPSDPRLHPPREAESTAETATPDGEHPFPEPMDTQEAPTAEETSACCAPRPAKVSRKRRSSSLSDGGDAGLVPSKKARLEEKEEEEGASSEVADRLQPPPAQAEGAFPNLARVLQRRFSGLLNCSPAAPPTAPPACEAKPACRPADSMLNVLVRAVVAF | 81
11 | IER2 S33: IER2, S33 to alanine (protein, UniProt Q9BTL4 1-223, looked up, variant S33A) Immediate early response gene …: MEVQKEAQRIMTLSVWKMYHSRMQRGGLRLHRALQLSLVMRSARELYLSAKVEALEPEVSLPAALPSDPRLHPPREAESTAETATPDGEHPFPEPMDTQEAPTAEETSACCAPRPAKVSRKRRSSSLSDGGDAGLVPSKKARLEEKEEEEGASSEVADRLQPPPAQAEGAFPNLARVLQRRFSGLLNCSPAAPPTAPPACEAKPACRPADSMLNVLVRAVVAF | 58
12 | IER2 G27: IER2, G27 to alanine (protein, UniProt Q9BTL4 1-223, looked up, variant G27A) Immediate early response gene …: MEVQKEAQRIMTLSVWKMYHSRMQRGALRLHRSLQLSLVMRSARELYLSAKVEALEPEVSLPAALPSDPRLHPPREAESTAETATPDGEHPFPEPMDTQEAPTAEETSACCAPRPAKVSRKRRSSSLSDGGDAGLVPSKKARLEEKEEEEGASSEVADRLQPPPAQAEGAFPNLARVLQRRFSGLLNCSPAAPPTAPPACEAKPACRPADSMLNVLVRAVVAF | 77
13 | IER2 R9: IER2, R9 to alanine (protein, UniProt Q9BTL4 1-223, looked up, variant R9A) Immediate early response gene …: MEVQKEAQAIMTLSVWKMYHSRMQRGGLRLHRSLQLSLVMRSARELYLSAKVEALEPEVSLPAALPSDPRLHPPREAESTAETATPDGEHPFPEPMDTQEAPTAEETSACCAPRPAKVSRKRRSSSLSDGGDAGLVPSKKARLEEKEEEEGASSEVADRLQPPPAQAEGAFPNLARVLQRRFSGLLNCSPAAPPTAPPACEAKPACRPADSMLNVLVRAVVAF | 78
14 | IER2 H31: IER2, H31 to alanine (protein, UniProt Q9BTL4 1-223, looked up, variant H31A) Immediate early response gene …: MEVQKEAQRIMTLSVWKMYHSRMQRGGLRLARSLQLSLVMRSARELYLSAKVEALEPEVSLPAALPSDPRLHPPREAESTAETATPDGEHPFPEPMDTQEAPTAEETSACCAPRPAKVSRKRRSSSLSDGGDAGLVPSKKARLEEKEEEEGASSEVADRLQPPPAQAEGAFPNLARVLQRRFSGLLNCSPAAPPTAPPACEAKPACRPADSMLNVLVRAVVAF | 61
15 | IER2 S37: IER2, S37 to alanine (protein, UniProt Q9BTL4 1-223, looked up, variant S37A) Immediate early response gene …: MEVQKEAQRIMTLSVWKMYHSRMQRGGLRLHRSLQLALVMRSARELYLSAKVEALEPEVSLPAALPSDPRLHPPREAESTAETATPDGEHPFPEPMDTQEAPTAEETSACCAPRPAKVSRKRRSSSLSDGGDAGLVPSKKARLEEKEEEEGASSEVADRLQPPPAQAEGAFPNLARVLQRRFSGLLNCSPAAPPTAPPACEAKPACRPADSMLNVLVRAVVAF | 62
16 | IER2 R32: IER2, R32 to alanine (protein, UniProt Q9BTL4 1-223, looked up, variant R32A) Immediate early response gene …: MEVQKEAQRIMTLSVWKMYHSRMQRGGLRLHASLQLSLVMRSARELYLSAKVEALEPEVSLPAALPSDPRLHPPREAESTAETATPDGEHPFPEPMDTQEAPTAEETSACCAPRPAKVSRKRRSSSLSDGGDAGLVPSKKARLEEKEEEEGASSEVADRLQPPPAQAEGAFPNLARVLQRRFSGLLNCSPAAPPTAPPACEAKPACRPADSMLNVLVRAVVAF | 70
17 | IER2 I10: IER2, I10 to alanine (protein, UniProt Q9BTL4 1-223, looked up, variant I10A) Immediate early response gene …: MEVQKEAQRAMTLSVWKMYHSRMQRGGLRLHRSLQLSLVMRSARELYLSAKVEALEPEVSLPAALPSDPRLHPPREAESTAETATPDGEHPFPEPMDTQEAPTAEETSACCAPRPAKVSRKRRSSSLSDGGDAGLVPSKKARLEEKEEEEGASSEVADRLQPPPAQAEGAFPNLARVLQRRFSGLLNCSPAAPPTAPPACEAKPACRPADSMLNVLVRAVVAF | 81
18 | IER2 L36: IER2, L36 to alanine (protein, UniProt Q9BTL4 1-223, looked up, variant L36A) Immediate early response gene …: MEVQKEAQRIMTLSVWKMYHSRMQRGGLRLHRSLQASLVMRSARELYLSAKVEALEPEVSLPAALPSDPRLHPPREAESTAETATPDGEHPFPEPMDTQEAPTAEETSACCAPRPAKVSRKRRSSSLSDGGDAGLVPSKKARLEEKEEEEGASSEVADRLQPPPAQAEGAFPNLARVLQRRFSGLLNCSPAAPPTAPPACEAKPACRPADSMLNVLVRAVVAF | 66
19 | IER2 G26: IER2, G26 to alanine (protein, UniProt Q9BTL4 1-223, looked up, variant G26A) Immediate early response gene …: MEVQKEAQRIMTLSVWKMYHSRMQRAGLRLHRSLQLSLVMRSARELYLSAKVEALEPEVSLPAALPSDPRLHPPREAESTAETATPDGEHPFPEPMDTQEAPTAEETSACCAPRPAKVSRKRRSSSLSDGGDAGLVPSKKARLEEKEEEEGASSEVADRLQPPPAQAEGAFPNLARVLQRRFSGLLNCSPAAPPTAPPACEAKPACRPADSMLNVLVRAVVAF | 87
